In test [1] the target is T1, native human CXCR2 expressed by human neutrophils (Homo sapiens, UniProt P25025).
T1 construct: native human CXCR2 expressed by human neutrophils; endogenous in cells; host or cells: human peripheral blood cells (buffy coat, PBMC-enriched fractions, anticoagulated blood): neutrophils, monocytes
T1 sequence (P25025 1-360): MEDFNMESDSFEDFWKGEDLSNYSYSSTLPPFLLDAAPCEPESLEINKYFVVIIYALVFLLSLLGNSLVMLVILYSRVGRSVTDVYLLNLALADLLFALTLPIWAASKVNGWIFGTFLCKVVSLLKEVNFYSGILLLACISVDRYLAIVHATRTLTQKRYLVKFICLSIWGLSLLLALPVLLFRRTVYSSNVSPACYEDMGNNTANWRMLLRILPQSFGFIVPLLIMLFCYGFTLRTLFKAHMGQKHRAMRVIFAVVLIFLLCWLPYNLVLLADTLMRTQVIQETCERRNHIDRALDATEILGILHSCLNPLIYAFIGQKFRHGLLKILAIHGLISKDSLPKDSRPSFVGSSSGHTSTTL
Briefly: Flow cytometry binding to human blood cells (neutrophils, monocytes, PBMC preparations). Conditions: FIG. 2, MFI. Here is the method:
(§1) Whole human buffy coat, PBMC enriched fractions prepared from human peripheral blood buffy coat or cynomolgus monkey whole blood was used for analysis of antibody binding activity by flow cytometry. Briefly, blood was untreated or diluted 1:1 in sterile filtered room temperature phosphate-buffered saline (PBS). 30 mL samples were layered over 15 mL Lymphoprep™ (Stem Cell Technologies, cat #07851). Peripheral blood mononuclear cells (PBMC) were enriched by room temperature centrifugation at 700 g for 30 minutes with no braking. The PBMC layer was isolated and cells washed in PBS containing 2 mM EDTA with low speed centrifugation at 200 g, to remove platelet contamination. Whole blood or PBMC enriched cell fractions were resuspended in red blood cell lysing solution (BioLegend, 420301). Viable cell counts were determined and cells resuspended at 1×10^7 cells per mL in FACS buffer (1×PBS+0.5% (w/v) BSA+2 mM EDTA pH 7.2).
(§2) Flow cytometry binding assays using whole blood or PBMC enriched preparations: Binding assays to detect CXCR2 on blood neutrophil populations using test antibodies were performed essentially as described for assays using transiently transfected Expi293F™ cells. Binding of antibodies to human CXCR2 on the surface of the neutrophils was measured using anti-CXCR2 antibody directly conjugated to the fluorophore allophycocyanin (APC). Matched isotype control antibodies were included for comparison. Cells were incubated with lineage specific antibodies and 2 μg/ml of APC conjugated anti-CXCR2 antibody or isotype control prepared in ice cold 3% BSA/PBS for a minimum of 30 minutes at 4° C. The commercial anti-CXCR2 antibody (clone 48331 (R&D Systems FAB331A)) was used as a positive control. Neutrophil populations were identified by characteristic granularity and size, and positive binding of commercially available antibodies against CD10 (Biolegend, clone H110a, catalogue number 312204). Cells were washed and fixed (BioLegend Fixation buffer, 420801) prior to analysis. The level of fluorescence on the cell surface was measured by flow cytometry. Using this method, test anti-CXCR2 antibodies were detected binding neutrophils from both human and cynomolgus monkey.
To further characterize the anti-CXCR2 antibody BKO-4A8-101c, the ability to bind CXCR2 on neutrophils was tested on anticoagulated human blood. Binding was measured using BKO-4A8-101c directly conjugated to fluorophore APC. Matched isotype control antibodies conjugated to APC were included for comparison. Cells were incubated with lineage-specific antibodies and 2 μg/mL of APC conjugated anti-CXCR2 antibody or isotype control. The level of fluorescence on the cell surface was measured by flow cytometry. […]
(Flow cytometry measures light scatter and fluorescence of single cells or particles in a stream.)

Test [2] relates to native cynomolgus CXCR2 expressed by cynomolgus neutrophils. Kind of test: Flow cytometry binding to cynomolgus blood neutrophils. Also on record: species or system cynomolgus monkey. Conditions: FIG. 2, MFI. Here is the method:
as §1
as §2, with “Neutrophil populations were identified by characteristic granularity and size, and positive binding of commercially available antibodies against CD10 (Biolegend, clone H110a, catalogue number 312204). Cells were washed and fixed (BioLegend Fixation buffer, 420801) prior to analysis.” left out

The target of another test is T2, Human CXCR2 (Homo sapiens, UniProt P25025).
T2 sequence (P25025 1-360): T1 sequence (P25025 1-360)
Briefly: Flow cytometry binding assay, Expi293F cells transiently transfected with human CXCR2. Also on record: host or cells: Expi293F cells, vector pTT5. To be noted: for CXCR2 binding activity versus parental BKO-4A8: combinatorial variants with light chain c; for Fold change in binding relative to BKO-4A8: point variant chain co-expressed with parental other chain. The protocol: For each 10 mL transfection, lipid-DNA complexes were prepared by diluting 10 μg of plasmid DNA in Opti-MEM™ I Reduced Serum Medium (Cat. no. 31985-062) to a total volume of 1.0 mL. 54 μL of ExpiFectamine™ 293 Reagent was diluted in Opti-MEM™ I medium to a total volume of 1.0 mL. Transfections were carried out according to manufacturer's instructions. The cells were incubated in a 37° C. incubator with a humidified atmosphere of 8% CO2 in air on an orbital shaker rotating at 200 rpm. Approximately 18-24 hours post-transfection, the cell viability was evaluated and transfected cells harvested for use.
Harvested cells were resuspended in FACS buffer (1×PBS+0.5% (w/v) bovine serum albumin (BSA)+2 mM EDTA pH 7.2). Approximately 2×10^5 cells were added per well in a 96-well round-bottomed plate. Cells were pelleted by centrifugation at 400 g for 5 mins at 4° C. and supernatants discarded. 25 μL of each test antibody or control antibody was added to the cells and incubated for 30 minutes at 4° C. Cells were washed twice in 100 μL FACS buffer followed by centrifugation at 400 g for 5 mins at 4° C.
For detection, 50 μL of secondary antibody (Table 2) was added to relevant samples. Commercially available antibodies that bound to transfected CXCR family members were used as positive controls to ensure that the cells were expressing the receptors. Cells were washed twice in 200 μL of FACS buffer followed by centrifugation at 400 g for 5 mins at 4° C. Before sample acquisition, cells were resuspended in 100 μL of FACS buffer. Samples were acquired using the high throughput sampler on a FACSCanto™ II cytometer (Beckton-Dickinson).
Binding of BKO-4A8 and variants thereof was detected by incubation of fluorochrome-conjugate anti-human IgG light chain lambda antibody. The binding activity of antibodies tested, quantified as mean fluorescent intensity, was independent of the antibody Fc region as illustrated in FIG. 9.

Data on seven molecules can be found in US12018084B2, “Anti-CXCR2 antibodies and uses thereof” (Cephalon LLC, priority 2018, dated 2024).

Positions count from the first letter of the chain named. Numbers in names are those of the source.

native cynomolgus CXCR2 expressed by cynomolgus neutrophils, sequence (as listed by the source): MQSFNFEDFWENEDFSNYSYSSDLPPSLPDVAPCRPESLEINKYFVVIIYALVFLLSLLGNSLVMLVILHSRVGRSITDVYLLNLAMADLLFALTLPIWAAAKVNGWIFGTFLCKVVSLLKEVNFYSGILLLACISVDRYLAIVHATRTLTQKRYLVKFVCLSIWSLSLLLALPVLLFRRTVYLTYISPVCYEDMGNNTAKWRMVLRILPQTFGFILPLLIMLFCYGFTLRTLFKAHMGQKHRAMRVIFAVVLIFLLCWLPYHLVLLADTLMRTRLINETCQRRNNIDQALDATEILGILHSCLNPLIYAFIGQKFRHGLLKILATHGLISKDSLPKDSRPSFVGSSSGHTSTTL

B1: BKO-8G3_b: recombinant, VH SEQ ID NO: 41, VL SEQ ID NO: 42 (antibody, V domains shown)
VH: EVQLLESGGGLVQPGGSLRLSCAASGFTFSSYAMSWVRQAPGKGLEWVSAITGSGGSTYYADSVKGRFTISRDKSKNTLYLQMNSLRAEDTAVYYCAIRLGYWGQGSLVTVSS
VL: QSALTQPPSASGSPGQSVTISCTGTSSDVGGYNYVSWYQQHPGKVPKLVIYEVSKRPSGVPDRFSGSKSGNTASLTVSGLQAEDEADYYCSSYAGSNNFGVFGGGTKLTVL
modifications: BKO_8G3_H4_D04_VH; BKO_8G3_L1_G01_VL
Take B1: the “binding to native human CXCR2 on human PBMCs / neutrophils” value in test [1] is “high binding activity”. For the same molecule, the “binding to native cynomolgus CXCR2 on cynomolgus PBMCs / neutrophils” value in test [2] was “high binding activity”.

B2: 102c: VH SEQ ID NO: 162, VL SEQ ID NO: 110 (antibody, V domains shown)
VH: EVQLLESGGGLVQPGGSLRLSCAASGFTFSSSTQSWVRQPPGKGLEWVSAISGRGRSTYYADSVKGRFTISRDNSKNTLYLQMNSLRAEDTAVYYCAIQEGYWGQGILVTVSS
VL: B1 VL with T23I, V45A, V49M
modifications: 4A8 VH Variant 102 M34Q_A40P_N56S_R75K_M96E; 4A8 VL variant c D41G_N52S_N94S
Consider B2, for which the “CXCR2 binding activity versus parental BKO-4A8” value with Human CXCR2 is reported as “reduced”.

B3: Y91A: BKO-4A8 point variant, VL SEQ ID NO: 83 (antibody, V domains shown)
VL: B1 VL with T23I, G43D, V45A, V49M, S54N, Y93A, S96N
modifications: VH not cited; 4A8 VL Y91A
B3: the “Fold change in binding relative to BKO-4A8” value with Human CXCR2 was 1.7.

B4: 106c: VH SEQ ID NO: 166, VL SEQ ID NO: 110 (antibody, V domains shown)
VH: B2 VH with R54S, R56G
VL: B1 VL with T23I, V45A, V49M
modifications: 4A8 VH Variant 106 M34Q_A40P_R53S_R55G_N56S_ R75K_M96E; 4A8 VL variant c D41G_N52S_N94S
For B4, the “CXCR2 binding activity versus parental BKO-4A8” value with Human CXCR2 is on record as “reduced”.

B5: BKO-9C3_a: recombinant, VH SEQ ID NO: 49, VL SEQ ID NO: 50 (antibody, V domains shown)
VH: B1 VH with L4V, S30R, T52S, R99Q, S107T
VL: B1 VL with T19I, V49M, S91T
modifications: BKO_9C3_H8_G08_VH; BKO_9C3_L1_F01_VL
Take B5: the “binding to native human CXCR2 on human PBMCs / neutrophils” value in test [1] is recorded as “substantial levels of binding”. In test [2], the “binding to native cynomolgus CXCR2 on cynomolgus PBMCs / neutrophils” value is listed as “above average levels of binding”.

B6: V97K: BKO-4A8 point variant, VL SEQ ID NO: 97 (antibody, V domains shown)
VL: B1 VL with T23I, G43D, V45A, V49M, S54N, S96N, V101K
modifications: VH not cited; 4A8 VL V97K
For the molecule B6, the “Fold change in binding relative to BKO-4A8” value in the test with Human CXCR2 was 1.0.

B7: V97A: BKO-4A8 point variant, VL SEQ ID NO: 96 (antibody, V domains shown)
VL: B1 VL with T23I, G43D, V45A, V49M, S54N, S96N, V101A
modifications: VH not cited; 4A8 VL V97A
As to B7, the “Fold change in binding relative to BKO-4A8” value with Human CXCR2 is on record as 1.7.
